Experiments:
Settings in all cases: both partners purified
ICAM-1D1D5-Fc = target: T1, ICAM-1D1D5-Fc (human); assay: SPR; Biacore T-200; ICAM-1D1D5 Fc immobilized to 1,400 RU on a CM5 chip pre-coupled to Protein A; head structures injected, two-fold dilutions 4 nM to 500 nM, 40 µL/min, 240 s association, 600 s dissociation; 10 mM HEPES pH 8.0, 300 mM NaCl, 0.05% Tween-20; one-site kinetic model
T1 construct: intercellular adhesion molecule 1 (ICAM-1), domains D1 to D5; captured on protein A by its Fc; also called ICAMD1D5; ICAM-1-Fc; source: HEK cells, recombinant (Bengtsson et al., 2013a)

[1] = target: T2, Recombinant His-tagged EPCR (human, UniProt Q9UNN8 18-238, biotin (biotinylated by BirA)); assay: SPR; Biacore T-200; biotinylated EPCR immobilized to 650 RU on a CAP chip (Biotin Capture Kit); head structures injected, two-fold dilutions 500 nM to 4 nM, 30 µL/min, 240 s association, 720 s dissociation; 10 mM HEPES pH 7.4, 300 mM NaCl, 0.05% Tween-20, 2 mg/ml ssDNA; one-site kinetic model
T2 construct: endothelial protein C receptor (EPCR); also called endothelial protein C receptor; source: S2 cells, purified and biotinylated (Lau et al., 2015)
T2 sequence: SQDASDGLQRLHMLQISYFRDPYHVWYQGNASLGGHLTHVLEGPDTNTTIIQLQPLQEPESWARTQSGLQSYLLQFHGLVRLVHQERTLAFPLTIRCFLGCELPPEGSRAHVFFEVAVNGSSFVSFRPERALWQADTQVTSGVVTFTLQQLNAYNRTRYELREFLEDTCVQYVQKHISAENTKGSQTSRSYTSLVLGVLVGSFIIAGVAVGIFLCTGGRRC

[2] = target: T2, Recombinant His-tagged EPCR; assay: SPR; Biacore T-200; dual binding: ICAM-1D1D5 Fc immobilized (1,800, 2,100 or 1,500 RU) on Protein A CM5 chip, head structure injected at 250 nM for 240 s, then EPCR injected, two-fold dilutions 250 nM to 16 nM, 30 µL/min, 240 s association, 720 s dissociation; 10 mM HEPES pH 8.0, 300 mM NaCl, 0.05% Tween-20; one-site kinetic model

B1: PF11_0521 head structure (NTS-DBLα1.7-CIDRα1.4-DBLβ3) (domain or fragment)
chain: MGNAIPATPDPIFINESYKSARNVLENVARLIKAKATKDVKRHRNVLKGNLRNAKFYHPFSKERPYYKSACDLDYRFHSNIWSGDNTYRHPCAGRNRNRFSYEGEAECRISRITGNKTEHGACAPYRRRHLCDYIFHQVNDNYIKTSDDLLGNLLVTAKYEGESIVNSYANSGMFNVCTALARSFADIGDIIRGKDLYLGNGDYKEKVSNNLRAIFNKIYENLNDPKLKKHYQKDAPNYYKLRDDWWNANREDVWKALTCNAPYEAQYFIKPSDKEHSFSSEYCGHYKNGDPLTNLDYVPQFLRWFEEWAEEFCRIKKIKLENVKNACRDEKKRKYCSLNGFDCTQTIWKKKVFGRGNDCTNCSFKCFPYEIWLGNQREAFRKQKEKYAKEIEAYVTNRGIPKSSINNGYYKDFYNKLKEKTYNTVDEFINLLNEGRYCKKQKPEEENIDFIKTGEKGTFYRSDYCQVCPDCGVDCSSGTCIEKKDDINCGKKINYEPPHGVKPIDIIVLYSGNEEGEITKRLSEFCTDSSNNKGKNYEQWKCYYKNGDDNKCKMVKNSGNNITEEKIISFDEFFYVWVRKLLIDSIKWENELNNCIDNTSTHCNKECNKNCECFDKWVKKKEDEWKNVKNVFENKNGTSHNYYNKLNGLFKGFFFEVMDKLNKDETKWNKLIESLRTKIDSSKENIGTGNTQDTIKVLLDHLKETATICKDNNTNEACETSRNRKTNPCAKPHGKKLATVKQIAQYYKRKAYIQLNERGSRSALKGDASQGQYDRGGKADDFKTKLCEINEKHSNARSNSLNPCNGKDNNKVRFNVGTPWQSGEKIATATDVYLPPRRQHFCTSNLEYLINGGHQAILNVKNGKINHSFLGDVLLAAKYQAQHTMKDYKSKNDKEGICRAIRYSFADIGDIIKGTDLWDKDGGEIKTQNHLVTIFDKIKAQLPKDIKGKYTGTKHLELRKDWWEANRDQVWKAMQCGNDNPCSGESDHTPLHDYIPQRLRWMTEWAEWYCKEQSRLYDKLKVCEECMRKGESCTKGSGECATCKEACEEYNKEIKKWEQQWDAISYKYLMLYAKARITAINGGPGYYNTEVQEEDKPVVDFLYNLYLQNGGKKGPPPDTHRVKALIARVKRDAARNRVKRADGSSATRVTATTTITPYSTAAGYIHQEAHIGDCQKQTQFCKNKNGSDVSDTEADPTYAFRDKPHDHDTACKC
For B1, the Kd (ICAM-1D1D5-Fc) was 2.33 nM, the koff (ICAM-1D1D5-Fc) was 5.41e-05 s⁻¹ and the kon (ICAM-1D1D5-Fc) was 23200 M⁻¹ s⁻¹. It also gave a Kd [1] of 1.18 nM, a koff [1] of 4.5e-05 s⁻¹ and a kon [1] of 38100 M⁻¹ s⁻¹.

B2: ICAM-1D1D5-Fc::PF11_0521 head structure complex (complex)
chain 1: QTSVSPSKVILPRGGSVLVTCSTSCDQPKLLGIETPLPKKELLLPGNNRKVYELSNVQEDSQPMCYSNCPDGQSTAKTFLTVYWTPERVELAPLPSWQPVGKNLTLRCQVEGGAPRANLTVVLLRGEKELKREPAVGEPAEVTTTVLVRRDHHGANFSCRTELDLRPQGLELFENTSAPYQLQTFVLPATPPQLVSPRVLEVDTQGTVVCSLDGLFPVSEAQVHLALGDQRLNPTVTYGNDSFSAKASVSVTAEDEGTQRLTCAVILGNQSQETLQTVTIYSFPAPNVILTKPEVSEGTEVTVKCEAHPRAKVTLNGVPAQPLGPRAQLLLKATPEDNGRSFSCSATLEVAGQLIHKNQTRELRVLYGPRLDERDCPGNWTWPENSQQTPMCQAWGNPLPELKCLKDGTFPLPIGESVTVTRDLEGTYLCRARSTQGEVTRKVTVNVLSPRYE
chain 2: MGNAIPATPDPIFINESYKSARNVLENVARLIKAKATKDVKRHRNVLKGNLRNAKFYHPFSKERPYYKSACDLDYRFHSNIWSGDNTYRHPCAGRNRNRFSYEGEAECRISRITGNKTEHGACAPYRRRHLCDYIFHQVNDNYIKTSDDLLGNLLVTAKYEGESIVNSYANSGMFNVCTALARSFADIGDIIRGKDLYLGNGDYKEKVSNNLRAIFNKIYENLNDPKLKKHYQKDAPNYYKLRDDWWNANREDVWKALTCNAPYEAQYFIKPSDKEHSFSSEYCGHYKNGDPLTNLDYVPQFLRWFEEWAEEFCRIKKIKLENVKNACRDEKKRKYCSLNGFDCTQTIWKKKVFGRGNDCTNCSFKCFPYEIWLGNQREAFRKQKEKYAKEIEAYVTNRGIPKSSINNGYYKDFYNKLKEKTYNTVDEFINLLNEGRYCKKQKPEEENIDFIKTGEKGTFYRSDYCQVCPDCGVDCSSGTCIEKKDDINCGKKINYEPPHGVKPIDIIVLYSGNEEGEITKRLSEFCTDSSNNKGKNYEQWKCYYKNGDDNKCKMVKNSGNNITEEKIISFDEFFYVWVRKLLIDSIKWENELNNCIDNTSTHCNKECNKNCECFDKWVKKKEDEWKNVKNVFENKNGTSHNYYNKLNGLFKGFFFEVMDKLNKDETKWNKLIESLRTKIDSSKENIGTGNTQDTIKVLLDHLKETATICKDNNTNEACETSRNRKTNPCAKPHGKKLATVKQIAQYYKRKAYIQLNERGSRSALKGDASQGQYDRGGKADDFKTKLCEINEKHSNARSNSLNPCNGKDNNKVRFNVGTPWQSGEKIATATDVYLPPRRQHFCTSNLEYLINGGHQAILNVKNGKINHSFLGDVLLAAKYQAQHTMKDYKSKNDKEGICRAIRYSFADIGDIIKGTDLWDKDGGEIKTQNHLVTIFDKIKAQLPKDIKGKYTGTKHLELRKDWWEANRDQVWKAMQCGNDNPCSGESDHTPLHDYIPQRLRWMTEWAEWYCKEQSRLYDKLKVCEECMRKGESCTKGSGECATCKEACEEYNKEIKKWEQQWDAISYKYLMLYAKARITAINGGPGYYNTEVQEEDKPVVDFLYNLYLQNGGKKGPPPDTHRVKALIARVKRDAARNRVKRADGSSATRVTATTTITPYSTAAGYIHQEAHIGDCQKQTQFCKNKNGSDVSDTEADPTYAFRDKPHDHDTACKC
B2 was tested, and the Kd [2] was 11.4 nM, the koff [2] was 0.000195 s⁻¹ and the kon [2] was 17200 M⁻¹ s⁻¹.

From article PMC5374107, “Structure-Guided Identification of a Family of Dual Receptor-Binding PfEMP1 that Is Associated with Cerebral Malaria” (Cell Host & Microbe, 2017)
